The target of this experiment is Arabidopsis thaliana PAXX (AtPAXX), full length, untagged (Arabidopsis thaliana). The experiment can be described thus: crystal structure.

As for “Arabidopsis thaliana PAXX (AtPAXX), full length, untagged (natural protein)”, the stoichiometry N amounted to 2.

By stoichiometry N is commonly meant a count of units in the complex or per binding partner.

The values are drawn from publication doi:10.1101/2023.05.26.542399.
